1 molecule from patent US20230106247A1 (L AND L BIO CO LTD NINGBO CHINA, published 2023) can be followed below.

In assay [1] the target is human Sirpα-V2-his (human). The experiment in a line: blocking ELISA, competitor CD47-his. On the procedure: Specifically, the recombinant protein of human Sirpα-V2-his was diluted to a concentration of 2 μg/mL with a PBS buffer at pH7.4, then added into a 96-well ELISA plate (Corning, CLS3590-100EA) at a volume of 50 μL/well, and placed in an incubator at 37° C. for 2 hours. After the liquid was discarded, the wells were added with a blocking solution of 5% skimmed milk (skimmed milk powder available from Bright Dairy) diluted with PBS at 230 μL/well, and incubated in an incubator at 37° C. for 3 hours, or placed overnight at 4° C. (for 16-18 hours) for blocking. […] The plate was washed for 5 times, added with 50 μL/well of a streptavidin-HRP secondary antibody (GenScript, M00091) diluted at 1:1000, incubated at 37° C. for 1 hour, and then washed with PBST for 5 times. Each well was added with 50 μL TMB (Surmodic, Cat #TTMB-1000-01) for color development, and added with 50 μL/well of 1 M H₂SO₄ to stop the reaction. The readings on a microplate reader (MultiskanGO Thermo, Model: 51119200) were subjected to data analysis by GraphPad prism 5.
human Sirpα-V2-his (human), sequence (chain, as listed by the source): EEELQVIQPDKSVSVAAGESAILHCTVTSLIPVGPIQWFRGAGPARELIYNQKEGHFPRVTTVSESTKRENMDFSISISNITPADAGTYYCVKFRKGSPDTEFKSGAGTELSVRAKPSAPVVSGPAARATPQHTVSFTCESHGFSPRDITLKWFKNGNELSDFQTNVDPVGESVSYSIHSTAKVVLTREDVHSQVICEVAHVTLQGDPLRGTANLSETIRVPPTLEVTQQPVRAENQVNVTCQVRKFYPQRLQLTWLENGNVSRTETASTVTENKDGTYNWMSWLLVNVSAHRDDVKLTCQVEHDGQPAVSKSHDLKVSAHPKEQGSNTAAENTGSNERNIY
(In general: In an ELISA, binding on a coated surface is turned into a signal by an enzyme label.)

Assay [2] concerns the target T1, human Sirpα-V1-hFc (human, UniProt P78324 31-373).
T1 construct: range 31-373; also called hSirpα (dimer); hSirpα-V1-hFc (dimer); not shown: human IgG1 Fc region at the C-terminus
The experiment in a line: blocking ELISA, competitor CD47-his. The protocol: (§1) The recombinant proteins such as human Sirpα-V1-hFc/Sirpα-V1-his were diluted to concentrations of 5 μg/mL or 2 μg/mL respectively with a PBS buffer at pH 7.4, and then added into a 96-well ELISA plate (Corning, CLS3590-100EA) at a volume of 50 μL/well, and placed in an incubator at 37° C. for 2 hours. After the liquid was discarded, the wells were added with a blocking solution of 5% skimmed milk (skimmed milk powder available from Bright Dairy) diluted with PBS at 230 μL/well, and incubated in an incubator at 37° C. for 3 hours, or placed overnight at 4° C. (for 16-18 hours) for blocking. […] The plate was washed for 5 times, added with 50 μL/well of streptavidin-HRP (GenScript, M00091) or anti-his-HRP secondary antibody (GenScript, A00612) diluted at 1:1000, incubated at 37° C. for 1 hour, and then washed with PBST for 5 times. Each well was added with 50 μL of TMB (Surmodic, Cat #: TTMB-1000-01) for color development, and added with 50 μL/well of 1 M H₂SO₄ to stop the reaction. The readings on a microplate reader (MultiskanGO Thermo, Model 51119200) were subjected to data analysis by GraphPad prism 5.

The target in assay [3] is T2, human Sirpα-V1 on CHO-K1 cells (CHO-K1 hSirpα+ cell line) (human, UniProt P78324 31-504).
T2 construct: whole, on cells; also called hSirpα-v1+ cell strain
The assay is described as follows: cell ELISA on hSirpα-v1+ cell strain. The text has this: The readings on a microplate reader (MultiskanGO Thermo, Model 51119200) were subjected to data analysis by GraphPad prism 5.

In assay [4] the target is T1, human Sirpα-V1-hFc. The experiment in a line: blocking ELISA, competitor CD47-his. The protocol: as §1
This is another data set of the same source.

For assay [5], the target named is T3, human Sirpα-V1-his (human, UniProt P78324 31-373).
T3 construct: range 31-373; Bought (Sino Biological 11612-H08H) or expressed in-house; also called hSirpα-V1; hSirpα-V1-his
The experiment in a line: blocking ELISA, competitor CD47-hFc. The protocol:
as §1

The target in assay [6] is T4, human T cells (expressing Sirpγ) (human, UniProt Q9P1W8 29-387).
T4 construct: whole, on cells; The target as printed is the cell; also called human PBMCs (T cells)
T4 sequence (Q9P1W8 29-387): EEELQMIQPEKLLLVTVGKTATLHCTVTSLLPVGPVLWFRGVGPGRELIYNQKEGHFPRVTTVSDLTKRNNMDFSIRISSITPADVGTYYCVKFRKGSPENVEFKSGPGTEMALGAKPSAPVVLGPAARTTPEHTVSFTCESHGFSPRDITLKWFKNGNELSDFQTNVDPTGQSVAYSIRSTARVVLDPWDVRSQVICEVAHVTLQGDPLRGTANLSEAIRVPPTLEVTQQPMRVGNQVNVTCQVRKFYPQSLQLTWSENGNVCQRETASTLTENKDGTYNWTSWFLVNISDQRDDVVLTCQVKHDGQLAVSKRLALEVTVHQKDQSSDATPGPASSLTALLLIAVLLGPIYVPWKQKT
The assay is described as follows: flow cytometry on PBMC. For orientation: Flow cytometry measures light scatter and fluorescence of single cells or particles in a stream.

The target in assay [7] is T3, human Sirpα-V1-his. The experiment in a line: ELISA. On the procedure: The self-expressed human PD-1, Sirpα and the like antigens of the present disclosure were diluted with a PBS buffer at pH7.4 to a concentration of 2 μg/mL according to different assays, and then added into a 96-well ELISA plate (Corning, CLS3590-100EA) at a volume of 50 μL/well, and placed in an incubator at 37° C. for 2 hours. After the liquid was discarded, the wells were added with a blocking solution of 5% skimmed milk (Sangon Biotech (Shanghai) Co., Ltd., A600669-0250) diluted with PBS at 200 μL/well, and incubated in an incubator at 37° C. for 3 hours, or placed overnight at 4° C. (for 16-18 hours) for blocking. The blocking solution was discarded, and the plate was washed with a PBST buffer (pH7.4 PBS containing 0.05% tween-20) for 5 times, then added with 50 μL/well of 5-fold serial dilution of the antibody to be tested in 1% BSA, and incubated at 37° C. for 1 hour. […] The plated was washed with PBST for 5 times, then added with 50 μL/well of TMB chromogenic substrate (KPL, 52-00-03), incubated at room temperature for 5-10 min, added with 50 μL/well of 1 M H₂SO₄ to stop the reaction, and read by a […] Go microplate reader (ThermoFisher, 51119200) for the absorbance value at 450 nm, and then EC₅₀ was calculated according to the OD value.
The aforementioned bispecific antibodies were cloned, expressed and purified according to the cloning, expression and purification methods of Example 1 of the present disclosure.

Like-named read-outs stand apart in the source and are kept apart here.

B1: humanized antibody mab14-h16 (antibody, human IgG4 S228P, kappa, V domains shown)
VH: QVQLVQSGAEVKKPGASVKVSCKASGYNFNIYWINWVRQAPGQGLEWIGNIYPSSISTNYNEKFKTRATLTVDKSTSTVYMELSSLRSEDTAVYYCARSEGTYYGGRYEGDWFGYWGQGTLVTVSS
VL: DIQMTQSPSSLSASVGDRVTITCRASQDIRNYLNWYQQKPGKAPKLLIYFTSTLHSGVPSRFSGSGSGTDFTLTISSLQPEDFATYYCQQGNTLPWTFGGGTKVEIKR
notes: hIgG4, κ
The term IC50 denotes the midpoint of a concentration-inhibition curve. High values mean lower potency, low ones higher potency. One may read the EC50 as the midpoint of the concentration-response curve. Read a high EC50 as weaker potency. As for B1, the 50% inhibitory concentration (IC50) in assay [1] was determined as 2.39 nM; in assay [2] it was 4.81 nM; in assay [4], 5.92 nM; in assay [5] it was 5.28 nM. The results for the EC50 in assay [3] and in assay [7] were 0.124 nM and 0.077 nM, respectively. For the same molecule, the binding result in assay [6] is reported as “no binding (tested: negative control 1.67%)”.
